Target: double-domain activation-associated secreted protein (ASP) (Cooperia oncophora (endogenous in adult worms))
Assay: reducing against non-reducing SDS-PAGE, bands identified by MALDI-TOF MS

Substance: double-domain activation-associated secreted protein (ASP) (natural protein)
- stoichiometry N: 2
